# Test results as given in patent US20210355220A1 (TIKCRO TECHNOLOGIES, published 2021).
# Substitutions are numbered along the chain they refer to.
# B1: Ab55h-PM1 (antibody, V domains shown)
# VH: QVQLQESGPGLVKPSETLSLTCAVSGYSISGDYYWNWIRQPPGKGLEWIGSIYHSGYTYYNPSLKSRVTISVDTSKNQFSLKLSSVTAADTAVYYCARDSGWYVIAFDYWGQGTLVTVSS
# VL: EIVMTQSPATLSVSPGERATLSCRASQSVSSNLAWYQEKPGQAPRLLIYGASTRATGIPARFSGSGSGTEFTLTISSLQSEDFAVYYCQQYNNWPPLTFGGGTKVEIK
# B2: Ab55h-PM10 (antibody, V domains shown)
# VH: B1 VH with N36G
# VL: B1 VL with T53S
# B3: Ab55h-PM26 (antibody, V domains shown)
# VH: B1 VH with N36G, S100V, W102F, Y109I
# VL: B1 VL
# B4: Ab55h-PM24 (antibody, V domains shown)
# VH: B1 VH with N36G, S100V, Y109I
# VL: B1 VL
# B5: Ab55h-PM4 (antibody, V domains shown)
# VH: B1 VH with N36G, L64V
# VL: B1 VL
# B6: Ab55h-PM2 (antibody, V domains shown)
# VH: B1 VH with N36G, S55D
# VL: B1 VL
# B7: Ab55h-PM21 (antibody, V domains shown)
# VH: B1 VH with N36G
# VL: B1 VL with W94S
# B8: Ab55h-PM15 (antibody, V domains shown)
# VH: B1 VH with N36G, W102A
# VL: B1 VL
# B9: Ab55h-PM5 (antibody, V domains shown)
# VH: B1 VH with N36G, D108A
# VL: B1 VL
# B10: Ab55h-PM22 (antibody, V domains shown)
# VH: B1 VH with N36G
# VL: B1 VL with L97I
# B11: Ab55h-PM6 (antibody, V domains shown)
# VH: B1 VH with N36G, Y109I
# VL: B1 VL
# B12: Ab55h-PM11 (antibody, V domains shown)
# VH: B1 VH with N36G, A106G
# VL: B1 VL
# B13: Ab55h-PM3 (antibody, V domains shown)
# VH: B1 VH with N36G, G56A
# VL: B1 VL
# B14: Ab55h-PM28 (antibody, V domains shown)
# VH: B1 VH with N36G, A106G, F107Y
# VL: B1 VL
# B15: Ab55h-PM16 (antibody, V domains shown)
# VH: B1 VH with N36G
# VL: B1 VL with N92A
# B16: Ab55h-PM13 (antibody, V domains shown)
# VH: B1 VH with N36G, S100V
# VL: B1 VL
# B17: Ab55h-PM23 (antibody, V domains shown)
# VH: B1 VH with N36G
# VL: B1 VL with L97F
# B18: Ab55h-PM14 (antibody, V domains shown)
# VH: B1 VH with N36G, W102F
# VL: B1 VL
# B19: Ab55h-PM9 (antibody, V domains shown)
# VH: B1 VH with N36G
# VL: B1 VL with S52T
# B20: Ab55h-PM18 (antibody, V domains shown)
# VH: B1 VH with G31S, N36G
# VL: B1 VL
# B21: Ab55h-PM27 (antibody, V domains shown)
# VH: B1 VH with N36G, W102F, Y109I
# VL: B1 VL
# B22: Ab55h-PM7 (antibody, V domains shown)
# VH: B1 VH with N36G
# VL: B1 VL with V29I
# B23: Ab55h-PM17 (antibody, V domains shown)
# VH: B1 VH with N36G
# VL: B1 VL with N93V
# B24: Ab55h-PM25 (antibody, V domains shown)
# VH: B1 VH with N36G, S100V, W102F
# VL: B1 VL
# B25: Ab55h-PM12 (antibody, V domains shown)
# VH: B1 VH with N36G, F107Y
# VL: B1 VL
# B26: Ab55h-PM8 (antibody, V domains shown)
# VH: B1 VH with N36G
# VL: B1 VL with G50A
# B27: Ab55h-PM20 (antibody, V domains shown)
# VH: B1 VH with N36G
# VL: B1 VL with S30Y
# B28: Ab55h-PM19 (antibody, V domains shown)
# VH: B1 VH with N36G
# VL: B1 VL with S30G
# B29: Ab47h (antibody, V domains shown)
# VH: QVQLVESGGGVVQPGRSLRLSCAASGFTFSNYGIHWVRQAPGKGLEWVAAIWYDGNNKYYADSVKDRFTISRDNSKNTLYLQMNSLRVEDTAVYYCARNGVLGAFDIWGQGTMVTVSS
# VL: DIQMTQSPSSLSASVGDRVTITCRASQGISNYLAWYQQKPGKVPKLLIYAASTLQSGVPSRFSGSGSGTDFTLTISSLQPEDVATYYCQKYNSSPWTFGQGTKVEIK
# B30: Ab55h-PM-R6 (antibody, V domains shown)
# VH: B1 VH with N36G
# VL: B1 VL with N93S
# B31: Ab55h-PM-R5 (antibody, V domains shown)
# VH: B1 VH with N36G
# VL: B1 VL with N92G
# B32: Ab55h-PM-R9 (antibody, V domains shown)
# VH: B1 VH with N36G, Y103S
# VL: B1 VL
# Target: T1, human CTLA-4 expressed on cells (human, UniProt P16410 36-223)
# T1 construct: whole, on cells; On stably or transiently transfected HEK293 cells; also called hCTLA-4; HEK293-hCTLA-4 cells
# T1 sequence (P16410 36-223): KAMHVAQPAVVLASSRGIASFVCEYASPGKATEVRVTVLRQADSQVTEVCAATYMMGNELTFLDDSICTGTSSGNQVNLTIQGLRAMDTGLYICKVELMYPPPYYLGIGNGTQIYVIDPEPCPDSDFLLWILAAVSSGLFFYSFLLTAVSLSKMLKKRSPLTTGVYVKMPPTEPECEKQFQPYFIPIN
# Experiment: flow cytometry on HEK293-hCTLA-4 cells
# Procedure: To test the binding of antibodies to CTLA-4 under more physiological conditions, the binding of CTLA-4 antibodies to cell-surface CTLA-4 was tested. […] The surface expression of hCTLA-4 in the obtained cell line was tested using a commercial anti-CTLA-4 antibody and compared to the parent cell line (HEK293 without transfection). […] The anti-CTLA-4 antibodies were incubated in serial dilution concentrations with the HEK293-hCTLA-4 cells for 1 hour on ice. Following a wash step, an anti-human antibody conjugated to ALEXA FLUOR® 647® was added for an additional hour. The cells were washed, and propidium iodide (PI) was added to exclude dead cells. The fluorescent signal was measured using FACS and analyzed. Dead cells were removed based on the PI signal. The population was gated based on forward and side scatter (FSC and SSC) parameters, and doublets were removed. The Median Fluorescent Intensity (MFI) of the appropriate channel was calculated for the live single cells from each group. The MFI was plotted versus antibody concentration in Prism software (V6.01) and kinetic parameters were obtained using a curve fit dose response function with four parameters. […] The lower EC₅₀ values indicate increased binding affinity to cell surface hCTLA-4.
row,EC50,Binder
1,0.27 nM,B1
2,0.24 nM,B2
3,0.35 nM,B3
4,0.2 nM,B4
5,0.39 nM,B5
6,0.52 nM,B6
7,0.22 nM,B7
8,0.32 nM,B8
9,0.24 nM,B9
10,0.09 nM,B10
11,0.15 nM,B11
12,0.21 nM,B12
13,0.42 nM,B13
14,0.31 nM,B14
15,0.27 nM,B15
16,0.22 nM,B16
17,0.22 nM,B17
18,0.32 nM,B18
19,0.26 nM,B19
20,0.21 nM,B20
21,0.2 nM,B21
22,0.18 nM,B22
23,0.31 nM,B23
24,0.34 nM,B24
25,0.24 nM,B25
26,0.16 nM,B26
27,0.19 nM,B27
28,0.12 nM,B28

# Target: T2, Recombinant human CTLA-4-his (Sino Biologicals, 11159-H08H) (human, UniProt P16410 36-162)
# T2 construct: Bought protein; also called dimer hCTLA-4; not shown: his tag
# T2 sequence (P16410 36-162 limits assumed): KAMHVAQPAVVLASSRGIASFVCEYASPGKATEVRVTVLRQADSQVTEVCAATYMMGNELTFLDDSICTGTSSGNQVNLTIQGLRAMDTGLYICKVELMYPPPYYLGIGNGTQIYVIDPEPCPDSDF
# Experiment: SPR (Biacore T100), antibody captured on anti-human chip, CTLA-4-his in solution
# Procedure: Recombinant human CTLA-4-his (Sino Biologicals, 11159-H08H) was added in a serial 2-fold dilution, starting at a concentration of 500nM. […] The measurement was corrected using the baseline channel and the protein-antibody interaction was measured by the change in surface resonance and quantified with Biacore T100 control software (version 2.0.4).
row,Kd,Binder
1,10 nM,B29

# Target: T1, human CTLA-4 expressed on cells
# Experiment: flow cytometry on HEK293 cells overexpressing human CTLA-4, serial dilution, MFI
# Procedure: HEK293 cells were prepared as described above. […] Binding was measured using FACS.
binding result,EC50 (read off the curve),Binder
binds,–,B30
–,~0.2 nM,B31
binds,–,B32
